Molecular target: GFP-CLASP2 S1234A mutant (human)
Assay: co-IP

## Polo-like kinase 1 (Plk1), endogenous (from UniProt P53350 1-603) (natural protein)
  reduction of co-immunoprecipitated Plk1 relative to wild type: 40%

Source: PMC3471233
